Source: patent publication US20060264369, “Aptamers to von Willebrand Factor and their use as thrombotic disease therapeutics” (published 2006)
Numbering of substitutions follows the chain as printed.

What was measured:
[1] = molecular target: T1, von Willebrand factor A1 domain (Homo sapiens, UniProt P04275 SEQ:13-246); assay: filter; DPBS, 0.1 mg/mL BSA, RT; settings: label: 5'-32P
Experimental: (§1) KD values were calculated by fitting the equation y=(max/(1+K/protein))+yint using KaleidaGraph (KaleidaGraph v. 3.51, Synergy Software).

[2] = molecular target: T2, von Willebrand factor full length (Homo sapiens, UniProt P04275 SEQ:764-2813); assay: filter; DPBS, 0.1 mg/mL BSA, RT; settings: tags: Calbiochem 681300; label: 5'-32P
Experimental: as §1

[3] = molecular target: T1, von Willebrand factor A1 domain; assay: filter; no binding; settings: label: 5'-32P
[4] = molecular target: T2, von Willebrand factor full length; assay: filter; no binding; settings: tags: Calbiochem 681300; label: 5'-32P
Experimental: (§2) For KD determination, chemically synthesized aptamers were purified using denaturing polyacrylamide gel electrophoresis, 5′end labeled with γ-³²P ATP and were tested for direct binding to full length human vWF (Calbiochem Cat.# 681300, La Jolla, Calif.). An 8 point protein titration was used in the dot blot binding assay (100 nM, 30 nM, 10 nM, 3 nM, 1 nM, 300 pM, 100 pM, 0 pM)) in 1× Dulbecco's PBS containing […] (final volume of 50 uL) for 30 minutes at room temperature. KD values were calculated by fitting the equation y=(max/(1+K/protein))+yint using KaleidaGraph (KaleidaGraph v. 3.51, Synergy Software).

[5] = molecular target: T2, von Willebrand factor full length; assay: filter; 46% bound at 100 nM vWF; settings: tags: Calbiochem 681300; label: 5'-32P
Experimental: as §2

[6] = molecular target: T2, von Willebrand factor full length; assay: filter; 37% bound at 100 nM; settings: tags: Calbiochem 681300
Experimental: as §2

[7] = molecular target: T2, von Willebrand factor full length; assay: filter; 50% bound at 100 nM; settings: tags: Calbiochem 681300
Experimental: as §2

[8] = molecular target: T2, von Willebrand factor full length; assay: filter; 45% bound at 100 nM; settings: tags: Calbiochem 681300
Experimental: as §2

[9] = molecular target: T2, von Willebrand factor full length; assay: filter; 25% bound at 100 nM vWF; settings: tags: Calbiochem 681300; label: 5'-32P
Experimental: as §2

[10] = molecular target: T2, von Willebrand factor full length; assay: filter; 21% bound at 100 nM vWF; settings: tags: Calbiochem 681300; label: 5'-32P
Experimental: as §2

[11] = molecular target: T2, von Willebrand factor full length; assay: filter; 49% bound at 100 nM; settings: tags: Calbiochem 681300
Experimental: as §2

[12] = molecular target: T2, von Willebrand factor full length; assay: filter; 39% bound at 100 nM; settings: tags: Calbiochem 681300
Experimental: as §2

[13] = molecular target: T2, von Willebrand factor full length; assay: cell_activity; IC90 BIPA in human platelet rich plasma
Experimental: In order to determine the activity of aptamers on live human platelets, BIPA assays were done using freshly prepared platelet rich plasma. Blood was obtained from healthy human donors who had not taken NSAIDS for at least five days. […] Collected blood was pooled into 15 mL conical tubes and was spun at 200 g for 20 minutes. The turbid, yellow layer of platelet rich plasma (“PRP”) was withdrawn from the tubes, pooled, and set aside at room temperature. The remaining blood was spun at 2500 g for ten minutes. The clarified layer of plasma, known as platelet poor plasma (“PPP”), was withdrawn and set aside at room temperature. PRP was aliquoted into cuvettes containing stir bars at a volume of 470 uL. A sample of 500 uL of PPP was aliquoted into a cuvette and placed in the PPP reference cell of the platelet aggregometer. Samples of PRP were prewamed at 37 degrees C. in the platelet aggregometer for 3-5 minutes before being used in BIPA assays. First, the concentration of botrocetin needed to induce platelet aggregation for each individual donor was determined by titration. This concentration of botrocetin was used for the remainder of the experiment. Next, aptamer was assayed by adding titrations of aptamer (zero, 1 nM to 1000 nM) to prewarmed PRP for one minute, followed by addition of botrocetin. With platelet aggregation, an increase in amplitude of light transmission is seen (FIG. 8). The concentration at which platelet aggregation is blocked at 90% or greater after 6 minutes is reported in the final column of Table 26.

[14] = molecular target: T2, von Willebrand factor full length; assay: filter; DPBS, 0.1 mg/mL BSA, RT; settings: tags: Calbiochem 681300; label: 5'-32P; remark: listed apart in the source
Experimental: Minimers were tested for direct binding to full length human vWF (SEQ ID NO 7), and rabbit vWF A1 domain (SEQ ID NO 6) using a 9 point protein titration (100 nM, 30 nM, 10 nM, 3 nM, 1 nM, 300 pM, 100 pM, 30 pM, 0 pM) (see FIG. 6) in 1×Dulbecco's PBS containing 0.1 mg/mL BSA (final volume of 50 uL) for 30 minutes at room temperature and then applied to a nitrocellulose and nylon filter sandwich in a dot blot apparatus (Schleicher and Schuell, Keene, N.H.). KD values were calculated by fitting the equation y=(max/(1+K/protein))+yint using KaleidaGraph (KaleidaGraph v. 3.51, Synergy Software).

[15] = molecular target: T2, von Willebrand factor full length; assay: filter; DPBS, 0.1 mg/mL BSA, RT; settings: tags: Calbiochem 681300; label: 5'-32P; remark: listed apart in the source
Experimental: Based on this initial screen, KDs were determined for 3 of the vWF dependent binding sequences using the dot blot assay. […] A 12 point protein titration was used in the dot blot assay (300 nM, 100 nM, 30 nM, 10 nM, 3 nM, 1 nM, 300 pM, 100 pM, 30 pM, 10 pM, 3 pM, 0 pM) in 1× DPBS plus 0.1 mg/mL BSA at room temperature for 30 minutes. KD values were calculated by fitting the equation y=(max/(1+K/protein))+yint using KaleidaGraph (KaleidaGraph v. 3.51, Synergy Software).

[16] = molecular target: T2, von Willebrand factor full length; assay: filter; no binding; settings: tags: Calbiochem 681300; label: 5'-32P; remark: listed apart in the source
[17] = molecular target: T2, von Willebrand factor full length; assay: filter; 25.6% bound at 100 nM vWF; settings: tags: Calbiochem 681300; label: 5'-32P
Experimental: as §2

[18] = molecular target: T2, von Willebrand factor full length; assay: filter; 48.3% bound at 100 nM vWF; settings: tags: Calbiochem 681300; label: 5'-32P
Experimental: as §2

GGAGCCACGGGGTGGGTAGACGGCGGGTATGTGGCTCC (mixed, 2'-OH purines, deoxy pyrimidines) [rRdY minimer SEQ 180]
Kd [1]: 11 nM
Kd [2]: 1 nM

CGATCTGACTAGCGGAATGAGAATGCTGGTGGATCG (ssDNA) [DNA1 minimer SEQ 206]
binding result [3]: no binding

GCGUGCAGUGCUUCGCCGTGCGGTGCCUCCGUCACGC (mixed, 2'-OMe/deoxy composite, 3'-idT) [ARC1348]
binding result [4]: no binding

GGCGTGCAGTGCCTTCGGCCGTGCGGTGCCTCCGTCACGCC (ssDNA, single PS between G21 and T22, 3'-idT) [ARC1759]
Kd [5]: 0.7 nM

GGCGTGCAGTGCCTTCGGCCGTGCGGTGCCTCCGTCACGCC (ssDNA, 2'-OMe at 12,13,19; 3'-idT) [ARC1239]
Kd [6]: 5 nM

GGCGTGCAGTGCCTTCGGCCGTGCGGTGCCTCCGTCACGCC (ssDNA, 2'-OMe at 12; 3'-idT) [ARC1205]
Kd [7]: 1 nM

GGCGTGCAGTGCCTTCGGCCGTGCGGTGCCTCCGTCACGCC (ssDNA, 2'-OMe at 11; 3'-idT) [ARC1204]
Kd [8]: 2 nM

GGCGTGCAGTGCCTTCGGCCGTGCGGTGCCTCCGTCACGCC (ssDNA, 2'-OMe C7, 3'-idT) [ARC1200]
Kd [9]: 5 nM

GGCGTGCAGTGCCTTCGGCCGTGCGGTGCCTCCGTCACGCC (ssDNA, 2'-OMe C33, 3'-idT) [ARC1226]
Kd [9]: 12 nM

GGCGTGCAGTGCCTUCGGCCGTGCGGTGCCTCCGTCACGCC (ssDNA, 2'-OMe at 15 (mU); 3'-idT) [ARC1208]
Kd [8]: 2 nM

GGCGUGCAGTGCCTTCGGCCGTGCGGTGCCTCCGTCACGCC (mixed, 2'-OMe at 1-5 and 37-41, 3'-idT) [ARC1338]
Kd [10]: 7.4 nM

GGCGTGCAGTGCCTTCGGCCGTGCGGTGCCTCCGTCACGCC (ssDNA, 2'-OMe at 19; 3'-idT) [ARC1212]
Kd [11]: 2 nM

GGCGTGCAGTGCCTTCGGCCGTGCGGTGCCTCCGTCACGCC (ssDNA, 2'-OMe at 17; 3'-idT) [ARC1210]
Kd [11]: 2 nM

GGCGTGCAGTGCCTTCGGCCGTGCGGTGCCTCCGTCACGCC (ssDNA, 2'-OMe at 40; 3'-idT) [ARC1233]
Kd [12]: 2 nM

GGCGTGCAGTGCCTTCGGCCGTGCGGTGCCTCCGTCACGCC (ssDNA, 5'-PEG20K-hexylamine; 3'-idT) [ARC1885]
activity [13]: ~50 nM

GGCGTGCAGTGCCTTCGGCCGTGCGGTGCCTCCGTCACGCC (ssDNA, 2'-OMe at 36; 3'-idT) [ARC1229]
Kd [6]: 5 nM

GGCGTGCAGTGCCTTCGGCCGTGCGGTGCCTCCGTCACGCC (ssDNA, 2'-OMe at 21; 3'-idT) [ARC1214]
Kd [12]: 3 nM

GGCGTGCAGTGCCTTCGGCCGTGCGGTGCCTCCGTCACGCC (ssDNA, 2'-OMe at 13; 3'-idT) [ARC1206]
Kd [7]: 2 nM

GGCGTGCAGTGCCTTCGGCCGTGCGGTGCCTCCGTCACGCC (ssDNA, 2'-OMe at 38; 3'-idT) [ARC1231]
Kd [7]: 1 nM

CCAGCGGAATGAGAATGCTGATGGATTGCTCAGGTCTGCTGG (ssDNA) [DNA1 minimer SEQ 204]
binding result [3]: no binding

GGCGUGCAGUGCCUUCGGCCGTGCGGTGCCUCCGUCACGCC (mixed, 2'-OMe/deoxy composite with 4 PS as printed in Table 22, 3'-idT) [ARC1343]
Kd [10]: 23.9 nM

GGAGCCACACGACATTGGCGGGCGAGAGCCACGCATGGCTCC (mixed, 2'-OH purines, deoxy pyrimidines) [rRdY minimer SEQ 192]
Kd [1]: 4 nM
Kd [2]: 2 nM

GGCCACACGACATTGGCGGGCGAGAGCCACGCATGGCC (mixed, 2'-OH purines, deoxy pyrimidines) [rRdY minimer SEQ 198]
Kd [1]: 5 nM
Kd [2]: 3 nM

GGCGTGCAGTGCCTATTCTAGGCCGTGCGGTGCCTCCGTCACGCC (ssDNA, 3'-idT) [ARC1027]
Kd [14]: 0.8 nM

GGCGUGCAGUGCUUCGCCGTGCGGTGCCUCCGUCACGCC (mixed, 2'-OMe/deoxy composite, 3'-idT) [ARC1347]
binding result [4]: no binding

B1: AMX237.G6 (ssDNA)
DNA: CTACCTACGATCTGACTAGCGTGCAGTGCCTATTCCAGGCCGTGCGGTGCCTCCGTCACGCTTACTCTCATGTAGTTCC
Kd [15]: 0.2 nM

B2: AMX238.E9 (ssDNA)
DNA: B1 DNA with T31C, T34C, C35T, C36T
Kd [15]: 0.39 nM

B3: AMX238.H5 (ssDNA)
DNA: B1 DNA with C36T
Kd [15]: 0.33 nM

ATGAGAGTGCTGGTGGATTGCTCAGGTCTGCTGGCTGCTTACTCTCAT (ssDNA) [ARC845]
binding result [16]: no binding

CGGCCGTGCGGTGCCUCCGUCACUUUGUGCAGUGCCG (mixed, 2'-OMe/deoxy composite, single PS, 3'-idT) [ARC1534]
Kd [17]: 62.8 nM

B4: ARC1779 (mixed)
mixed: GCGUGCAGUGCCUUCGGCCGTGCGGTGCCUCCGUCACGC
modifications: 2'-OMe at 1-4,8-18,20,22,27,28,30,33,34,36-39, rest deoxy; PS between 20 and 21; 5'-PEG20K-hexylamine; 3'-idT
activity [13]: ~100 nM

B5: ARC1780 (mixed)
mixed: B4 mixed
modifications: 2'-OMe at 1-4,8-18,20,22,27,28,30,33,34,36-39, rest deoxy; PS between 20 and 21; 5'-PEG40K-hexylamine; 3'-idT [2'-OMe at 1-4,8-18,20,22,27,28,30,33,34,36-39, rest deoxy; PS between 20 and 21 (printed S left out); 5'-PEG40K-hexylamine (left out); 3'-idT at 40]
activity [13]: ~100 nM

CCGGCCGTGCGGTGCCUCCGUCACUUUGUGCAGUGCCGG (mixed, 2'-OMe/deoxy composite, single PS, 3'-idT) [ARC1535]
Kd [18]: 27.1 nM
